Target: T1, γ subunit of human NAD-dependent isocitrate dehydrogenase (IDH3) (human, UniProt P51553 40-393)
T1 sequence: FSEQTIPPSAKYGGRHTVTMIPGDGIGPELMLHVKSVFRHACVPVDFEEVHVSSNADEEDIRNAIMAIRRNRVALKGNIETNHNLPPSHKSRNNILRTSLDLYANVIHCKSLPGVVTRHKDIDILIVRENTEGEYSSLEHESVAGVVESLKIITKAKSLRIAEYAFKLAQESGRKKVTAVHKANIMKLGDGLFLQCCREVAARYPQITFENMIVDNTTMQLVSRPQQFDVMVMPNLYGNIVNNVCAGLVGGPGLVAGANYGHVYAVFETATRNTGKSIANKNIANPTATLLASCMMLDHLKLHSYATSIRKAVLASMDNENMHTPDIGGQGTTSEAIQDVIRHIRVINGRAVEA
Assay: SEC-MALS

B1: α subunit of human NAD-dependent isocitrate dehydrogenase (IDH3) (natural protein)
chain: TGGVQTVTLIPGDGIGPEISAAVMKIFDAAKAPIQWEERNVTAIQGPGGKWMIPSEAKESMDKNKMGLKGPLKTPIAAGHPSMNLLLRKTFDLYANVRPCVSIEGYKTPYTDVNIVTIRENTEGEYSGIEHVIVDGVVQSIKLITEGASKRIAEFAFEYARNNHRSNVTAVHKANIMRMSDGLFLQKCREVAESCKDIKFNEMYLDTVCLNMVQDPSQFDVLVMPNLYGDILSDLCAGLIGGLGVTPSGNIGANGVAIFESVHGTAPDIAGKDMANPTALLLSAVMMLRHMGLFDHAARIEAACFATIKDGKSLTKDLGGNAKCSDFTEEICRRVKDLD
B1: binds.

Source: paper doi:10.1101/2020.06.25.170399 (bioRxiv, 2020)
